According to the DeepSol protein solubility set:

Assay: soluble on expression in E. coli; label from the status in PepcDB or PDB records

Row | Sequence | soluble on expression in E. coli
1 | MEKIWPTGAQEETLMTQETNQNEVVVQNNAVAKTNTGSNYITAILEETKQGFVEANNGLDMDFVRMGEWLTVTKKGNFVEKDDENVSYGDNIDVVIGYGEQRWSVWGLEESPEAGQLIVAERTKEEAEIVLNQWLAENPQAQERYELDAIQLRYMASVVPVSTLRPDDFPRIYLMSFSPTDTIIFGRFAMNVYTGKYKALEIPSKLGVNRIVTRLVTAERKSRTNASNQWIGIDFQPVGVFKPEDYGINVEETEQAEKASE | not soluble
2 | MEKKAFFQQLDERTDIRYTDSGLKIFRLKFPRAHLRLCNVKIDFGSRDVCIRAESGDTLLPYGTAHFLEHLLFWHNGRNLYSDFFAHGALLNAFTTYTDTNFMFTSLPDRLRQTIPILLDALWNHSFDKKIVAQEKAVITSEIQTAHLNHQLSYHYQLISMLSPSSPAAVFPAGRIEDIEALDISDLQKAYKAAYQAHRMTLFLIGGSENTETLLPPHLQLEKRPDYHAERKIIPACPPVLSQKMMLGDEERMEDTWTGLQIGALPGQNDLLSIKLYWDIAARILFQLDSPFFQEIQQTYRLEIDRLSAETYIYEDGGFLILHSQGTHSSAYIDVASYYVTQKKEQVAAWLQYGKDSLTDAIIYDSDYVRKCFEWAAECDRCDCSFLDMYHIIQDMDAQVFLSLIDAMASSNKAIIHVSQKEAIRQ | not soluble
3 | MEKKYRKEPVEIPPEIAETAAGGKVPETDVTEQYPQMEEMNGTEAAGEMPQIGPMYPIPQVPAQPTEPAQQMGQMPCMQPIPQMVPVVCCPFLLQMHCPMMPMDYSSMSHPTYQTAPQAMPQTMQAVPQPATPAQYAPGPCGSPYYPQHSGSPCGYGSDMYDQNYNSSMYNPSMYNPMRPGYY | not soluble
4 | MEKLEALKRLFPGKVDLSESERLRHGKDEGYPEARPVLAVVYPEGVEDVQKALRWAREWGVAVIPFGAGTSLEGHLYPVREAISLDLSRMNRVLEVRPQDFSCVVEPGLTRKALNEALKGTGLFFPVDPGADASLGGMAATNASGTTTVRYGGMRQNVLALQVVLASGEVLELGRGVRKTSSGYDLKDLFIGSEGTLGVITRLTLRLHPLPEHVHTLRVFFPGVEEAAEASYRIMASGLPVARLELLDELAMRALNRYLKAGFPERPALFLEFHASTKEALEAERASALELVREAGALEVEAATTEEERRRQWEARHQAYWALVHLFPGHRFMITDTAVPLSRLPEMVRFAQGLLREMGLTGNILGHVGDGNFHTLIPVLPEDYPKAEAYAERLVEKALELGGTCTAEHGVGLRKRKFLPKEHGPALEWMRRLKALFDPEGLLNPGKVV | soluble
5 | MEKNKSSSPDFSVRDFFKRFPDDEACLEHIFNVRFGARHVCRACGVESTFHRMSDRRAFACAACGDHVYPTAGTIFQDTRTPLQVWFYAIYLFVTTRHGVSGKELQRQLGVTYKTAWRIGHKIREQMDKHDLKAMLQGHVEIDEAYIGGKRPGKRGRGAAGKTIVMGFKQRGGRLVTEIVPDVKLKTLRAETLKTVDAGATVSTDELYSYSLLKGEGYTHVAVKHGAKQWTIYDAETDTMHHTNHVESFWRHFKHSIRGTHVSISQRHMRKYLDEFTFRANHRGEVNLMFDRLVAAFLEHHHHHH | soluble
6 | MEKNMRPYTVLWADDEIDLLKPHILFLEQKGYQVTPVLSGNDAIEAVQNNDFDIVFLDENMPGIGGLDALQKIKELKPYTPVVMITKSEEEHIMTQAIGGKIADYLIKPVNPNQLLLSLKKNLQQHSIISETTNTNYRQEFVQLGTQMSGKLSFEEWKELYRRIVFWEIELEQADRQMGELLEMQKQEANRLFARFVTQNYREWIAKPDTRPTMSPDLFKQKVFPLLDNGEKVFFILIDNFRQDQWESVKSMLSEFYTFEEDMYLSILPTATQYARNAIFSGLMPLQIEKMFPDLWVDEESEEGKNLNEEPMIRTLIERYRKHYSFSYNKVYETKFGERLLGQIRSLSQNQLNVIVLNFVDMMSHARTDSKMIRELASNEAAYRSLTKSWFKHSTTYNLFRSIAEMGYKVVLTTDHGTIQVKNPVKVIGDRSTNTNLRYKIGKNLDYNPKEVFEIKDPASVGLPHNNLSDKFIFTKEDDFFAYPNNYNYYVQYYRNTFQHGGISLEEMLVPVITMQPK | not soluble
7 | MEKPGHETDIAGSRRTHLKKSFKSTLRHLLTACSKQVVVNLHQTIEEEFDEQCHETQVGPILDTVEELVEEQSLDPLFSDKTDVMAIAYDLTTSKKNEIQKLTVLLQRAEEQNRQKEARISMLKKQTQDLSGTADRIEKLNAGVSGYFEGKDKLPPI | soluble
8 | MEKQPNKLIREKSPYLLQHAWNPVDWHPWGEEAFSRARETGRPIFLSSGYSTCHWCHVMEHESFENAETAALLNRHFVPVKLDREEHPDVDHLYMMFVQATTGRGGWPMSVWMTPDLKPFFGGSYFPATERWGMPSFRSVLEHLANLWEHDRPRLLASAGSIMDQLSGLTRP | not soluble
9 | MEKQQDLPFPYEFRELNPEEDKLVKANLGAFPTTYVKLGPKGYMVYRPYLKDAANIYNMPLRPTDVFVASYQRSGTTMTQELVWLIENDLNFEAAKTYMSLRYIYLDGFMIYDPEKQEEYNDILPNPENLDMERYLGLLEYSSRPGSSLLAAVPPTEKRFVKTHLPLSLMPPNMLDTVKMVYLARDPRDVAVSSFHHARLLYLLNKQSNFKDFWEMFHRGLYTLTPYFEHVKEAWAKRHDPNMLFLFYEDYLKDLPGCIARIADFLGKKLSEEQIQRLCEHLNFEKFKNNGAVNMEDYREIGILADGEHFIRKGKAGCWRDYFDEEMTKQAEKWIKDNLKDTDLRYPNMEL | soluble
10 | MEKTYKLPIVLGTDPENTIRIDKLPPLKGAFAVHIHESETENNAHIKLEYGDTEYCLSLYVFNYPKFLRNETVRVRNYDLWPKWIMFAARLPNGKLHPKSGGKVYREDAVIVGEGNYELENPFISFKYSDGRILNFRIEFYRYLRYKSPKYGPSFRSEYWFIGVD | not soluble
11 | MEKVEHLNLNIQNILEDVDIDTASSSSDDEPEQAVVKQEKLEAGEQIEEQYDTDSDYDDDIVEFAEATGDFTKKLNAARLNTIGPNAARNRLTVDVERHADTSEDRKRKRVKDRADRATVEQVLDPRTRLVLFRLLQRGTLLNIDGCISTGKEANVYHATGTDNDLAIKIYKTSILTFKDRERYVTGEFRYRHGYCKSNPRKMVAVWAEKEMRNLARMHEVGLPVPKPHLLKGHVLVMDFLGKDGWPAPLLKNANLSQEDAEPMYVGLVRDMRRLYRECKLVHADLSEFNMLVHDGKLWIIDVSQSVEQDHPHALEFLRMDCNNVNKFFRELGVPVLSVRRLFEVIVDPLMSSKEMETIIEEERVLVNSEDDSLFMNAFIPHKLEHVLHFERDGKLAKEGVEANNPFQNIVSKIDLKGDGFGEEHDDSDDNDDEENGKKSRKKRAEPTEEEIQEKERKIAMHTRNREETAEERKERKAAVKEEKREQRKEKIPKHLKKRAHRQHMKYQSSPWSTLINCLHTLVP | not soluble
12 | MELKEELLRGIYGFGFEKPSAIQKSAVAPCTTGKDVTIQSQAGSGKTVISLIDILQGIDCEDAHLQVILLAPQRGMAQRAHEQLKSLGRNLNVNATCLGFDTTAENDKISHVLMGTPKDFLSNIPSDTSRIKMFVLDEADEMLSKGFKDQIYEVFRSMPQDVQVVLLSATMPSEVLDVTNRFMRDPIRILVKKDELTLEGIRQFYINVQKDEWKFNCLCDLLKTSRETQALIFCNTRRRVTQLTEQLMSIPIKVSCFHGNMEHNEREDMVKDFNSRNTRVLVTTDLMARGMNIRKSLIINYDVSGNMENYMLRNGRQGNFGSKGLPISFFTENDISDLKKIENHYSTRIEEMPESFLEYLDEN | not soluble
13 | MELMKDDRYSPDWKNIAITKKQSVHWVCEWCGVQCLKPGEGKGLLKEERYRLRMAVHHCDYDPGNNSPSNLMAVCSPCHLYYHRRQQGNITPGQLKITINLEHHHHHH | soluble
14 | MELTLQKYGSYEKFEQATGGSLLSKTRIWSHVRKYMVKEGCLGEIVVHLTEDLLSRASMTVVNGCPTLTINISTAREHWLEGMLRHEIGTHYFRGINNLQQPWNSWIGRKKHELKPNNPTEEGLASIHSVLFRKDPFLWRAALLYYTVYKASHMSFCELFKDIGKFVKDPNTRWDYCVRAKRGWTDTSEPGCFSKDQVYLDGVLQILRFRESIDFHLLTALGKVSYEDVDRLKELAVTENMRVPHFLHDHSRYMEHLERIMEVNELTDAELKNLI | not soluble
15 | MENFAYYTPTRLIFGKGLAIITPRWMRHILNDHTLERFVKFSVDIYGLLRLRKRTFMKYLKHHCRIYEEYNRGRIFGQGVCLFIIYYKLEHHHHHH | not soluble
16 | MENFHFEHRGPRRDRFARERTGRPEGPHRHGHRRGRFGPEGDPGFGPGMHFGRGRGRGGRGRRGDVRSAILLLLTEEPMHGYELIQQIVERSDGVWKPSPGSIYPALSQLEDEGLVLIEKVAGRKTARLTDEGEAFVEANKTELGTPWDDVRESVGRPAEDLRGLIGLLMGAAGQVAAVGDDEQVRRAGEILTEARRAMYRLLAEDDQSEAGKDDTDS | not soluble
17 | MENLASPPDISFVIAAYNAADTIEAAVQSALDQRGVTLEVIVVDDRSADDTITFVEAIAAIDPRVRLLALEENRGPGGARNAGIEAATGRWIAVLDSDDVIRPERSACMMCRAEAANAAVAVDNLDVVYTDGRPMETMFPEEFLEERAVLTLEDFISSNILFRSTFNFGYMKPMFRRDFLNNEGLRFREDIRIGEDYILLASALAAGGLCVIEPKPGYIYNIREGSISRVLELHHVEAMMRADQEFLSHYTLLPAAMDAQQARARSLQLAHNFLTLVENIKRRSVLGALKTTIRDPAVLGHLRMPIAVRLRRLRDAMFAPAAKIQGLEHHHHHH | soluble
18 | MENLYKELGDQSLHKDFCQTVASTFSCSVNRNGKSSITWKQVQIWFQEKLKHQSQPKSKTLPSPPLQIHDLSNPSSYASNASNATFVGNSTFVQTRKGKASDLADLAFEAKSARDYAWYDVSSFLTYRVLRTGELEVRVRFSGFDNRHDEWVNVKTSVRERSIPVEPSECGRVNVGDLLLCFQEREDQALYCDGHVLNIKRGIHDHARCNCVFLVRYELDNTEESLGLERICRRPEE | not soluble
19 | MENVTESKELERLKRIDRMKTEFIANISHELRTPLTAIKAYAETIYNSLGELDLSTLKEFLEVIIDQSNHLENLLNELLDFSRLERKSLQINREKVDLCDLVESAVNAIKEFASSHNVNVLFESNVPCPVEAYIDPTRIRQVLLNLLNNGVKYSKKDAPDKYVKVILDEKDGGVLIIVEDNGIGIPDHAKDRIFEQFYRVDSSLTYEVPGTGLGLAITKEIVELHGGRIWVESEVGKGSRFFVWIPKDRAGEDNRQDN | soluble
20 | MEPMRIGPRLSVAAVSHVGRRQNNEDFHRVLPLETPAGLLLLLAVADGMGGLEAGEWASKLAIEALSEAARGYAEHLQSGRPAVGLARVMEKGFLLARRRVEREAERPGRRGMGTTLTAFLYADWLKEGVVGHIGDSRAYRFGPTGVFRLTEDHSWVAERLKEGVLTRTEAERHPYRNVLTRALGLPEARFDLVEVRLAPGEGVLLVTDGLYGHVPEEEWRLGRDLQASLEAMVAEALRRGGDDNVTAVALRVE | soluble
21 | MEQELISKKELLELTGISYGQLYRWKRKKLIPEEWFIRKSTFTGQETFFPKEKILARIEKIKELKDELSLDELAGMFAPDPAAVVLTKEEVIKRHIVSNVALQWLSDQLGDRQDVSFGQLLSLYIVDRLLRSGEINIEEGKNIWMMFESHYPKLQGKSCELVVLRKMGVTVCLLVEEAAGLYVEEGAKLVARLHVPTYIEELKLTISEG | not soluble
